Results reported in US20100166772A1 (published 2010).

How the values were obtained:
[1] = molecular target: T1, ORF0657n [156-254] (CNBr fragment of ORF0657t, SDS PAGE bands 9 and 10) (S. aureus, UniProt A5IS15 156-254); test: Western blot of CNBr fragments of ORF0657t, column Western negative, bands 9 and 10
T1 construct: Limits as printed; also called 13 kDa band; 10 kDa band
T1 sequence: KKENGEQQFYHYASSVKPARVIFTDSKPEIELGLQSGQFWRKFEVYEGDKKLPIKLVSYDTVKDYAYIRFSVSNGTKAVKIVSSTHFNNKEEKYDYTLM

[2] = molecular target: T2, ORF0657n [254-396] (CNBr fragment of ORF0657t, SDS PAGE band 8) (S. aureus, UniProt A5IS15 254-396); test: Western blot of CNBr fragments of ORF0657t, column Western negative, band 8
T2 construct: Limits as printed; also called 16 kDa band
T2 sequence (A5IS15 254-396): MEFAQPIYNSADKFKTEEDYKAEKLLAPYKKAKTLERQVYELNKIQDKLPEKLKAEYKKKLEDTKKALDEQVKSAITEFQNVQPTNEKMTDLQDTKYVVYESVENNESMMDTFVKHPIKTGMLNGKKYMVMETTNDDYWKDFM

[3] = molecular target: T3, ORF0657n [254-384] (CNBr fragment of ORF0657t, SDS PAGE band 8) (S. aureus, UniProt A5IS15 254-384); test: as above
T3 construct: Limits as printed; also called 16 kDa band
T3 sequence (A5IS15 254-384): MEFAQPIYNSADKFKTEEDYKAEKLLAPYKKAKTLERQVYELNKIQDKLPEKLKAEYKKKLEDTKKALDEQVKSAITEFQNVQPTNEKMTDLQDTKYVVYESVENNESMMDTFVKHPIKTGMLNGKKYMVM

[4] = molecular target: T4, ORF0657n [343-486] (CNBr fragment of ORF0657t, SDS PAGE band 8) (S. aureus, UniProt A5IS15 343-486); test: as above
T4 construct: Limits as printed; also called 16 kDa band
T4 sequence (A5IS15 343-486): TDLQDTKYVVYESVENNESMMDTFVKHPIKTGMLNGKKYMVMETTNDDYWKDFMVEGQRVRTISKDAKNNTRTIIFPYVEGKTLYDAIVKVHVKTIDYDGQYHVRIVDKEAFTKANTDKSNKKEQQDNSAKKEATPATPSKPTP

[5] = molecular target: T5, ORF0657n [397-486] (CNBr fragment of ORF0657t, SDS PAGE band 10) (S. aureus, UniProt A5IS15 397-486); test: Western blot of CNBr fragments of ORF0657t, column Western negative, band 10
T5 construct: Limits as printed; also called 10 kDa band
T5 sequence (A5IS15 397-486): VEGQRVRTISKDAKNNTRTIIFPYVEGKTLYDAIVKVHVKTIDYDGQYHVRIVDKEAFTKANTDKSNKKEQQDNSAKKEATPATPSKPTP

[6] = molecular target: T6, ORF0657n [255-342] (CNBr fragment of ORF0657t, SDS PAGE band 10) (S. aureus, UniProt A5IS15 255-342); test: as above
T6 construct: Limits as printed; also called 10 kDa band
T6 sequence: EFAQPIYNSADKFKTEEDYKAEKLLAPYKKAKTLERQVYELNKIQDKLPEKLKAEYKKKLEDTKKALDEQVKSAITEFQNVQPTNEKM

[7] = molecular target: ORF0657n on the cell surface of S. aureus (S. aureus, UniProt A5IS15 41-613); test: cell-based or functional assay
Chain of ORF0657n on the cell surface of S. aureus (A5IS15 41-613 limits assumed): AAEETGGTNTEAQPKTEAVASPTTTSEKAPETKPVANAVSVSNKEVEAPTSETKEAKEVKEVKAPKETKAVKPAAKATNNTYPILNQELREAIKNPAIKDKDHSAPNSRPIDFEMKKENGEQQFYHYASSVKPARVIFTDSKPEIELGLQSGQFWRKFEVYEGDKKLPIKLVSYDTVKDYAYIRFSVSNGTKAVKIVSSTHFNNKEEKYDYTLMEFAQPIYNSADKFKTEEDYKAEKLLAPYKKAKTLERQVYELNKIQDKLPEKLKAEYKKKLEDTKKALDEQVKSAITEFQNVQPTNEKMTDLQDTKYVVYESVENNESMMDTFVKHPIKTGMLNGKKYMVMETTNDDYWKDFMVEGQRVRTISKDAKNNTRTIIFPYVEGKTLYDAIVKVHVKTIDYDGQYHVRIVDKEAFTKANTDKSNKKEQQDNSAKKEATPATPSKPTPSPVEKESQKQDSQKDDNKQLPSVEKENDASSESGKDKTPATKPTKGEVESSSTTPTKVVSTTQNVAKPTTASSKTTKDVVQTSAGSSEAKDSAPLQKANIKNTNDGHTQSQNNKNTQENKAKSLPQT

[8] = molecular target: T7, ORF0657n [375-486] (CNBr fragment of ORF0657t, SDS PAGE band 9) (S. aureus, UniProt A5IS15 375-486); test: Western blot of CNBr fragments of ORF0657t, column Western negative, band 9
T7 construct: Limits as printed; also called 13 kDa band
T7 sequence (A5IS15 375-486): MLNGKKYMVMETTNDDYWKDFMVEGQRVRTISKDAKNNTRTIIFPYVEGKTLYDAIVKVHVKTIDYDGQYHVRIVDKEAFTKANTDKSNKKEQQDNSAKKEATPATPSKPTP

[9] = molecular target: T8, ORF0657n [255-375] (CNBr fragment of ORF0657t, SDS PAGE band 9) (S. aureus, UniProt A5IS15 255-375); test: as above
T8 construct: Limits as printed; also called 13 kDa band

[10] = molecular target: T9, ORF0657n [255-486] (CNBr fragment of ORF0657t, SDS PAGE band 7) (S. aureus, UniProt A5IS15 255-486); test: Western blot of CNBr fragments of ORF0657t, column Western negative, band 7
T9 construct: also called 26 kDa band

[11] = molecular target: T10, ORF0657n [42-254] (CNBr fragment of ORF0657t, SDS PAGE band 7) (S. aureus, UniProt A5IS15 42-254); test: as above
T10 construct: also called 26 kDa band
T10 sequence: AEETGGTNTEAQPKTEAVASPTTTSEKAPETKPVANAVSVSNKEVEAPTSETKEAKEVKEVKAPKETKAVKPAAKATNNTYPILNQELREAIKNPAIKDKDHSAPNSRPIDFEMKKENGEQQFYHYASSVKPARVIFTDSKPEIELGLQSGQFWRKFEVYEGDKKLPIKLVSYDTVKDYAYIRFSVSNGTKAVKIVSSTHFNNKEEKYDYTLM

B1: mAb CS-D7 (antibody, human IgG1, kappa, V domains shown)
VH: QVQLQESGPGLVKPSETLSLTCTVSGGSIRSSSYYWGWFRQTPGKGLEWLGNVFFSGSAYYNPSLKNRVTISIDTSENQSSLKLTSVTAADTAVYYCARPQAYSHDSSGHSPFDLWGRGTLVTVSS
VL: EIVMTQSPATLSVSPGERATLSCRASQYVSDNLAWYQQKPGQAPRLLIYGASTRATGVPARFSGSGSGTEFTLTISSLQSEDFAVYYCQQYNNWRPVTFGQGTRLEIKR
notes: also called D7 IgG; full length IgG CS-D7
~0.02 ug mAb: EC50 (read off the curve) [7]
no binding: binding result [1] | binding result [2] | binding result [3] | binding result [4] | binding result [5] | binding result [6] | binding result [8] | binding result [9] | binding result [10] | binding result [11]
